Measurements as given in patent publication US20140302035A1.
Blank lines part the entries; values can stand above or below the binder they belong to.

Assays:
[1] = molecular target: c-Met (human) (UniProt P08581); assay: cell-based or functional assay
[2] = molecular target: c-Met (human), P08581; assay: cell-based or functional assay
Chain of c-Met (human), P08581 (P08581 25-1390): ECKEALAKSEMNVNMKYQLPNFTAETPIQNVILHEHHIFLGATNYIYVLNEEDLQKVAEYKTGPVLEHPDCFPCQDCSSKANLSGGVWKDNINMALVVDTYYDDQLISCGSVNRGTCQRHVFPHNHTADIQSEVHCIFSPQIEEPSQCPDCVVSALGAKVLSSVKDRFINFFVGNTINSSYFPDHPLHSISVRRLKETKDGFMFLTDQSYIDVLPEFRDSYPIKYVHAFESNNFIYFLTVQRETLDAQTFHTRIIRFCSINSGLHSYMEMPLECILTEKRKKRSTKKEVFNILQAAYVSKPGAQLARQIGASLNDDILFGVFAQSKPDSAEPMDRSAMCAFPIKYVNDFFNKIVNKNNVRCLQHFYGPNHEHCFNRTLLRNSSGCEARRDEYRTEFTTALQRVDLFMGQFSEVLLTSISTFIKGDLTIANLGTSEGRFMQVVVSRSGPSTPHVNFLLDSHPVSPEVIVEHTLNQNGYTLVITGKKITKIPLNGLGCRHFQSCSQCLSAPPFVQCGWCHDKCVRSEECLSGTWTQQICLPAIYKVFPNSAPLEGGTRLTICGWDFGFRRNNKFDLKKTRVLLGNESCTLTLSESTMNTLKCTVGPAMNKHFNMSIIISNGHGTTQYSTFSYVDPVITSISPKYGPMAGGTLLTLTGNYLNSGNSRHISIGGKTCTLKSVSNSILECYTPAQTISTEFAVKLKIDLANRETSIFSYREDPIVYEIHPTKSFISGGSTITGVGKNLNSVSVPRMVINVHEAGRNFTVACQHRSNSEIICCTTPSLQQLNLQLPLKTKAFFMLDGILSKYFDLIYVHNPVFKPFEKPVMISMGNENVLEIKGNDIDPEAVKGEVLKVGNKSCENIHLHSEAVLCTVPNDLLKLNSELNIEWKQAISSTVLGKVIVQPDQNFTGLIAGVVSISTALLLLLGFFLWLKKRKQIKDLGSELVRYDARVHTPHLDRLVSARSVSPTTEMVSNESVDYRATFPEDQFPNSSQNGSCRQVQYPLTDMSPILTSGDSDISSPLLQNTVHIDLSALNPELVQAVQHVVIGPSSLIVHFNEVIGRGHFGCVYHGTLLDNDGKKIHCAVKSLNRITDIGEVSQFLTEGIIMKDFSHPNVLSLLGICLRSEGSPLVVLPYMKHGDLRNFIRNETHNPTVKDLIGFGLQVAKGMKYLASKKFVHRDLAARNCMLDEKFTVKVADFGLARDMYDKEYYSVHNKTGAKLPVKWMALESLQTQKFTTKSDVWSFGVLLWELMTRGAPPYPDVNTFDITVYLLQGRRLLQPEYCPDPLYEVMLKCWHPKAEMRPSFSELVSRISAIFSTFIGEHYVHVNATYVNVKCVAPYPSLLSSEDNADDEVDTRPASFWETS

Chain of c-Met (human) (P08581 25-1390): as above

c-Met degradation (total c-Met ELISA, 24 h), A549 cells [1]: < 20% | reduction of c-Met expression (total c-Met ELISA, 24 h), NCI-H2170 cells [1]: 30%
B1: OA-5D5 (antibody, part only; not given: constant regions and Fc knob chain, V domains shown, not shown: another chain or arm of the molecule; a dimerising Fc or GST)
VH: EVQLVESGGGLVQPGGSLRLSCAASGYTFTSYWLHWVRQAPGKGLEWVGMIDPSNSDTRFNPNFKDRFTISADTSKNTAYLQMNSLRAEDTAVYYCATYRSYVTPLDYWGQGTLVTVSS
VL: DIQMTQSPSSLSASVGDRVTITCKSSQSLLYTSSQKNYLAWYQQKPGKAPKLLIYWASTRESGVPSRFSGSGSGTDFTLTISSLQPEDFATYYCQQYYAYPWTFGQGTKVEIK

c-Met degradation (total c-Met ELISA, 24 h), A549 cells [2]: < 20% | reduction of c-Met expression (total c-Met ELISA, 24 h), NCI-H2170 cells [2]: 65%
B2: Ab#5 (bispecific antibody, human IgG1, kappa)
heavy: QLQLQESGPGLVKPSETLSLTCTVSGGSISSSVYYWSWIRQPPGKGLEWIGVIYPSGNTYYSPSLKSRVTISVDTSKNQFSLKLSSVTAADTAVYYCARTIYDLFDIWGQGTMVTVSSASTKGPSVFPLAPSSKSTSGGTAALGCLVKDYFPEPVTVSWNSGALTSGVHTFPAVLQSSGLYSLSSVVTVPSSSLGTQTYICNVNHKPSNTKVDKKVEPKSCDKTHTCPSCPAPEFLGGPSVFLFPPKPKDTLMISRTPEVTCVVVDVSQEDPEVQFNWYVDGVEVHNAKTKPREEQFNSKYRVVSVLTVLHQDWLNGKEYKCKVSNKGLPSSIEKTISKAKGQPREPQVYTLPPSREEMTKNQVSLSCAVKGFYPSDIAVEWESNGQPENNYKTTPPVLDSDGSFFLVSKLTVDKSRWQQGNVFSCSVMHEALHNHYTQKSLSLSKSCDKTGGGGSGGGGSGGGGSGGGGSGGGGSGGGGSGGGGSGGGGSCPSCPAPEFLGGPSVFLFPPKPKDTLMISRTPEVTCVVVDVSQEDPEVQFNWYVDGVEVHNAKTKPREEQFNSDYRVVSVLTVLHQDWLNGKEYKCKVSNKGLPSSIEKTISKAKGQPREPQVYTLPPSREEMTKNQVSLWCLVKGFYPSDIAVEWESNGQPENNYKTTPPVLDSDGSFFLYSKLTVDKSRWQQGNVFSCSVMHEALHNHYTQKSLSLSGECGGGGSGGGGSDIVMTQSPLSLPVTPGEPASISCRSTKSLLHSNGITYLYWYLQKPGQSPQLLIYQMSNLASGVPDRFSSSGSGTDFTLKISRVEAEDEGVYYCAQNLEIPRTFGGGTKLEIKRTGGGGSGGGGSGGGGSGGGGSQVQLVQSGAEVKKPGESVKISCKASGYTFTNYGMNWVRQAPGQGLKWMGWINTYTGESTYADDFKGRFAFSLDTSASTAYLQLSSLRSEDTAVYFCARFAIKGDYWGQGTLVTVSS
light: DIQMTQSPSSVSASVGDRVTITCRASQGISSWLAWYQQKPGKAPKLLIYAASSLQSGVPSRFSGSGSGTDFTLTISSLQPEDFATYYCLQANSFPPTFGGGTKVEIKRTVAAPSVFIFPPSDEQLKSGTASVVCLLNNFYPREAKVQWKVDNALQSGNSQESVTEQDSKDSTYSLSSTLTLSKADYEKHKVYACEVTHQGLSSPVTKSFNRGEC
